The chains are these.
B1: BBSome complex assembly protein BBS10 (Homo sapiens), Q8TAM1 (parent)
chain: MLSSMAAAGSVKAALQVAEVLEAIVSCCVGPEGRQVLCTKPTGEVLLSRNGGRLLEALHLEHPIARMIVDCVSSHLKKTGDGAKTFIIFLCHLLRGLHAITDREKDPLMCENIQTHGRHWKNCSRWKFISQALLTFQTQILDGIMDQYLSRHFLSIFSSAKERTLCRSSLELLLEAYFCGRVGRNNHKFISQLMCDYFFKCMTCKSGIGVFELVDDHFVELNVGVTGLPVSDSRIIAGLVLQKDFSVYRPADGDMRMVIVTETIQPLFSTSGSEFILNSEAQFQTSQFWIMEKTKAIMKHLHSQNVKLLISSVKQPDLVSYYAGVNGISVVECLSSEEVSLIRRIIGLSPFVPPQAFSQCEIPNTALVKFCKPLILRSKRYVHLGLISTCAFIPHSIVLCGPVHGLIEQHEDALHGALKMLRQLFKDLDLNYMTQTNDQNGTSSLFIYKNSGESYQAPDPGNGSIQRPYQDTVAENKDALEKTQTYLKVHSNLVIPDVELETYIPYSTPTLTPTDTFQTVETLTCLSLERNRLTDYYEPLLKNNSTAYSTRGNRIEISYENLQVTNITRKGSMLPVSCKLPNMGTSQSYLSSSMPAGCVLPVGGNFEILLHYYLLNYAKKCHQSEETMVSMIIANALLGIPKVLYKSKTGKYSFPHTYIRAVHALQTNQPLVSSQTGLESVMGKYQLLTSVLQCLTKILTIDMVITVKRHPQKVHNQDSEDEL
partner: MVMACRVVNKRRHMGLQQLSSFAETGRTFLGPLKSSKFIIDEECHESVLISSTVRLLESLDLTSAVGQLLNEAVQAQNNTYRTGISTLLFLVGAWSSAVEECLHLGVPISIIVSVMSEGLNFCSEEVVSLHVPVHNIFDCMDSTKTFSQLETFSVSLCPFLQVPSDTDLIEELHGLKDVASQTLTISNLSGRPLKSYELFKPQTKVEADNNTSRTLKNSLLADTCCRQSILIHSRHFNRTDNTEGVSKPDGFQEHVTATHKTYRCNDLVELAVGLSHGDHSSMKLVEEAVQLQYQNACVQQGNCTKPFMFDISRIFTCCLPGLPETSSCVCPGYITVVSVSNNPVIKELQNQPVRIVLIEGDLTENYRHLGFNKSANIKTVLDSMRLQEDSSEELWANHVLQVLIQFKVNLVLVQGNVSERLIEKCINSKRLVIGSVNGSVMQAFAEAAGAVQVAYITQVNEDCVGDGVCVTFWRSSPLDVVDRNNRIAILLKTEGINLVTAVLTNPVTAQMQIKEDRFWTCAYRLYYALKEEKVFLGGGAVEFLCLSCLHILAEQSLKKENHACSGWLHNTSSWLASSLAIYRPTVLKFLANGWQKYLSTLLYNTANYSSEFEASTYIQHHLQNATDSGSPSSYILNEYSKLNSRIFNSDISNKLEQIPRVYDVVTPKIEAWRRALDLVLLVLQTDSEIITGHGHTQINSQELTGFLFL
B2: Molecular chaperone MKKS (Homo sapiens), Q9NPJ1 (parent)
chain: MSRLEAKKPSLCKSEPLTTERVRTTLSVLKRIVTSCYGPSGRLKQLHNGFGGYVCTTSQSSALLSHLLVTHPILKILTASIQNHVSSFSDCGLFTAILCCNLIENVQRLGLTPTTVIRLNKHLLSLCISYLKSETCGCRIPVDFSSTQILLCLVRSILTSKPACMLTRKETEHVSALILRAFLLTIPENAEGHIILGKSLIVPLKGQRVIDSTVLPGILIEMSEVQLMRLLPIKKSTALKVALFCTTLSGDTSDTGEGTVVVSYGVSLENAVLDQLLNLGRQLISDHVDLVLCQKVIHPSLKQFLNMHRIIAIDRIGVTLMEPLTKMTGTQPIGSLGSICPNSYGSVKDVCTAKFGSKHFFHLIPNEATICSLLLCNRNDTAWDELKLTCQTALHVLQLTLKEPWALLGGGCTETHLAAYIRHKTHNDPESILKDDECTQTELQLIAEAFCSALESVVGSLEHDGGEILTDMKYGHLWSVQADSPCVANWPDLLSQCGCGLYNSQEELNWSFLRSTRRPFVPQSCLPHEAVGSASNLTLDCLTAKLSGLQVAVETANLILDLSYVIEDKN
partner: B1 partner
B3: BBSome complex assembly protein BBS10 (Homo sapiens), Q8TAM1 (parent)
chain: B1 chain
partner: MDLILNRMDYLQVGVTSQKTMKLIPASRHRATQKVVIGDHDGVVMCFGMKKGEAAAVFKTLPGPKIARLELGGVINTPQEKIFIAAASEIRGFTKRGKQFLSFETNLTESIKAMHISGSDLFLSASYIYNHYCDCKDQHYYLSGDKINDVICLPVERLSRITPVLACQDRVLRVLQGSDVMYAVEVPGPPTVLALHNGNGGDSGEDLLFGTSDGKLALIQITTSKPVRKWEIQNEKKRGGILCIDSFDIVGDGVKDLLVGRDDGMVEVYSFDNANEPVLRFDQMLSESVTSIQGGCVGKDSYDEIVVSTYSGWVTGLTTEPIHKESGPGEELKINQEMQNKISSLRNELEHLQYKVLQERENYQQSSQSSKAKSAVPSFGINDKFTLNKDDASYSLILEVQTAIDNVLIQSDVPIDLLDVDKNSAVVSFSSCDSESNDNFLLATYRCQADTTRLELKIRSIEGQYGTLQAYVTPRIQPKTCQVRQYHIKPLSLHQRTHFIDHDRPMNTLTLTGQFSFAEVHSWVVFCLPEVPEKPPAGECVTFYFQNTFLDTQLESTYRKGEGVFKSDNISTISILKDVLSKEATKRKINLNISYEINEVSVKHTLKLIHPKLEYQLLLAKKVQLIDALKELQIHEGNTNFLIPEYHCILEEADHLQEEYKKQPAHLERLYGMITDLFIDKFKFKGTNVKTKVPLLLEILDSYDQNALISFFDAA
B4: BBSome complex assembly protein BBS10 (Homo sapiens), Q8TAM1 (parent)
chain: B1 chain
partner: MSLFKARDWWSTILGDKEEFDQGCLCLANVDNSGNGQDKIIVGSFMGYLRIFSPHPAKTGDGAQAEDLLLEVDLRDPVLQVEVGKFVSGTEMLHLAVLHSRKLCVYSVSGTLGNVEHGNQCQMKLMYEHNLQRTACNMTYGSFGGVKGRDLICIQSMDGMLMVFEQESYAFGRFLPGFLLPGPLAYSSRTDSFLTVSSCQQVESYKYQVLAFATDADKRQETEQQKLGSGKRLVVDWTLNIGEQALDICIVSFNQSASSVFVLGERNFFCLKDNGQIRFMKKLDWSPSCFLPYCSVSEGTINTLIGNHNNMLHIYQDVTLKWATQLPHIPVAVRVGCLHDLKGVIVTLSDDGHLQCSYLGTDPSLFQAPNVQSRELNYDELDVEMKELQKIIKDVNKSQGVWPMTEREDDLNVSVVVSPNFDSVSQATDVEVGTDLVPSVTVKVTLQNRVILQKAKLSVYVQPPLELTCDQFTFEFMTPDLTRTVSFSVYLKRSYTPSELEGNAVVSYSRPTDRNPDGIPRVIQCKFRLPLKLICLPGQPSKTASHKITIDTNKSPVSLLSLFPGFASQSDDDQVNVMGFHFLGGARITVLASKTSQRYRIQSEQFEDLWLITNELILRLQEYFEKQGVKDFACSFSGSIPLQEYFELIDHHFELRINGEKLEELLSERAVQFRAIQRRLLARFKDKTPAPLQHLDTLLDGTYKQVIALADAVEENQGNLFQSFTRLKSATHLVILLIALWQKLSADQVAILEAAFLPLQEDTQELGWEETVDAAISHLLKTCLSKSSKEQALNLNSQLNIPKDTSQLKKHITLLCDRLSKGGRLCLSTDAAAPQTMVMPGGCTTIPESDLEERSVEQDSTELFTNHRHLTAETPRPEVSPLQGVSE
B5: Chaperonin-containing T-complex member BBS12 (Homo sapiens), Q6ZW61 (parent)
chain: B1 partner
partner: B2 chain

Variants of B1 are the subject of the first test. To be noted: with bbs12_human BBS12, Q6ZW61.
On to D81N, for which the “effect of a mutation on the interaction” value is on record as “decreasing interaction”.

As to S311A, the “effect of a mutation on the interaction” value is reported as “decreasing interaction”.

Take V240G: the “effect of a mutation on the interaction” value is reported as “decreasing interaction”.

S329L: the “effect of a mutation on the interaction” value is recorded as “decreasing interaction”.

The variants in another test derive from B2. Particulars: with bbs12_human BBS12, Q6ZW61.
For MSRLEAKKPSLCKSEPLTTERVRTTLSVLKRIVTSCYGPSGRLKQLHNGFGGYVCTASQSSALLSHLLVTHPILKILTASIQNHVSSFSDCGLFTAILCCNLIENVQRLGLTPTTVIRLNKHLLSLCISYLKSETCGCRIPVDFSSTQILLCLVRSILTSKPACMLTRKETEHVSALILRAFLLTIPENAEGHIILGKSLIVPLKGQRVIDSTVLPGILIEMSEVQLMRLLPIKKSTALKVALFCTTLSGDTSDTGEGTVVVSYGVSLENAVLDQLLNLGRQLISDHVDLVLCQKVIHPSLKQFLNMHRIIAIDRIGVTLMEPLTKMTGTQPIGSLGSICPNSYGSVKDVCTAKFGSKHFFHLIPNEATICSLLLCNRNDTAWDELKLTCQTALHVLQLTLKEPWALLGGGCTETHLAAYIRHKTHNDPESILKDDECTQTELQLIAEAFCSALESVVGSLEHDGGEILTDMKYGHLWSVQADSPCVANWPDLLSQCGCGLYNSQEELNWSFLRSTRRPFVPQSCLPHEAVGSASNLTLDCLTAKLSGLQVAVETANLILDLSYVIEDKN [T57A], the “effect of a mutation on the interaction” value is “decreasing interaction”.

In another test the parent is B3. To be noted: with bbs7_human BBS7, Q8IWZ6.
Regarding D81N, the “effect of a mutation on the interaction” value was “decreasing interaction”.

As for R34P, the “effect of a mutation on the interaction” value is given as “decreasing interaction”.

As for V240G, the “effect of a mutation on the interaction” value was “decreasing interaction”.

In the next test the parent is B4. Particulars: with pthb1_human BBS9, Q3SYG4.
Take D81N: the “effect of a mutation on the interaction” value was “decreasing interaction”.

As for R49W, the “effect of a mutation on the interaction” value is on record as “decreasing interaction”.

The next test covers variants of B5. Particulars: with mkks_human MKKS.
On to T501M, for which the “effect of a mutation on the interaction” value is on record as “decreasing interaction”.

For the variant G540V, the “effect of a mutation on the interaction” value is “decreasing interaction”.

Regarding I346T, the “effect of a mutation on the interaction” value is reported as “disrupting interaction”.
